From patent publication US20090022663A1 (published 2009)
Residue numbers refer to the chain shown, from its start.

B1: Ha16-1(1)23 (antibody, V domains shown)
VH: VESGGGVVQPGRSLRLSCAASGFTFRSYGMHWVRQAPGKGLEWVAVIWSDGSNKYYADSVKGRFTISRDNSKNTLYLQMNSLRAEDTAVYYCAREGYYGSGSYYYYYGMDVWGQGTTVTVSS
VL: QAGLTQPPSVSKGLRQTATLTCTGNSNNVGTQGAAWLQQHQGHPPKLLSYRNNNRPSGISERLSASTSGNTASLTITGLQPEDEADYYCSAWDSSLSAVVFGGGTKLTVLG
B2: H16-1.68 (antibody, V domains shown)
VH: EVHLVESGGGVVQPGRSLRLSCAASGFTFRSYGMHWVRQAPGKGLEWVAVIWYDGSNKYYADSVKGRFTISRDNSKNTLYLQMNSLRAEDMAMYYCARSRITIFGVVHYGMDVWGQGTTVTVSS
VL: TQLTQSPSSLSASVGDRVTITCRASQNINSYLNWYQQKPGKAPKLLIYAASSLQSGVPSRFSGSGSGTDFTLTISSLQPEDFTTYYCQQSYSSAPTFGGGTKLEIKR
B3: Ha16-1(3,5)27.1 (antibody, V domains shown)
VH: LVESGAEVKKPGESLKISCKGSGYRFTSYWIGWVRQMPGKGLEWMGIIYPGDSDTRYSPSFQGQVTISADKSISTAYLQWSSLKASDTAMYYCARKDYYYYSMDVWGQGTTVTVSS
VL: GQSALTQPASVSGSPGQSITISCTGTSSDVGGYNYVSWYQQHPGQAPKLLIYGVNIRPSGVSTRFSGSKSGNTASLTISGLQAEDEADYYCSSYTRSSILVVFAGGTKLTVLG
notes: VH entry holds part of the leader; both hold a portion of the constant region
B4: Ha16-1(3,5)36 (antibody, V domains shown)
VH: EVQLVESGPGLVKPSETLSLTCTVSGGSISSSSYYWGWIRQPPGKGLEWIGSMYYSGSTYHNPSLKSRVIISVDTSKNQFSLKLSSVTAADTAVYYCARHYITVAGIFDYWGQGTLVTVSS
VL: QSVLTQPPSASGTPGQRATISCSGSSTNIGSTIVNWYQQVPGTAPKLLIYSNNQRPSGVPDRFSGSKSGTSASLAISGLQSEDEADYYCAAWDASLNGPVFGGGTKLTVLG
B5: Ha16-1(1)11 (antibody, V domains shown)
VH: GPGLVKPSETLSLTCTVSGGSISSYYWSWIRQPPGKGLEWIGYIYYSGSTNYNPSLKSRVTISVDTSKNQFSLKLSSVTAADTAVYYCARAVSYYYYGMDVWGQGTTVTVSS
VL: DIQMTQSPSSLSASVGDRVTITCRTIQNINSYLNWYQQRPGKAPKLLIYATSSLQSGVPSRFSGSGSGTDFTLTISSLQPEDFATYYCQQTYSTLFTFGPGTKVDIKR
notes: also called ATCC PTA-7450
B6: H16-9.65 (antibody, V domains shown)
VH: QVQLVESGGGVVQPGRSLRLSCAASGFTFSSYGMHWVRQAPGKGLEWVATIWFDGSNGYYADSVKGRFTISRDNSKNTLYLQMNSLRAEDTAVYYCARDSSGSYDHFDYWGQGTLVTVSS
VL: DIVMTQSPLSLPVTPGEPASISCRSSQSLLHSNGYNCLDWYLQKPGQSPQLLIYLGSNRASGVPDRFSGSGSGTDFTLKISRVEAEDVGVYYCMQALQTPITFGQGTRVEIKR
notes: Fully human XenoMouse MAb; Entries hold the leader (or part of it) and a portion of the constant region
B7: H16-9.44 (antibody, V domains shown)
VH: LSLTCTVSGGSISSYYWSWIRQSAGKGLEWIGRIYTGVSTNYNPSLKSRVTMSVDTSKNQFSLKLSSVTAADTAVYYCARDYYDSSGYYPFDYWGQGTLVTVSS
VL: DIQMTQSPSSLSASVGDRVTISCRASQGISNYLAWFQQKPGKAPKSLIYAASSLENGVPSKFSGSGSGTDFTLTISSLQPEDFATYYCQQYNSSPFTFGPGTKVDIRR
notes: also called Ha16-9.44
B8: Ha16-1(3,5)18 (antibody, IgG1, V domains shown)
VH: GPGLVKPSETLSLTCTVPGGSIRSYFWSWIRQPAGKGLEWIGRFYFSGSTNYNPSLKSRVTMSVDTSKNQFSLKLSSVTAADTAVYYCARDYGDHYYYYGMDVWGQGTTVTVSS
VL: VLTQPPSVSAAPGQKVTISCSGSSSNIGNNYVSWYQQFPGTAPKFLIYDNNKRSSGIPDRFSGSKSGTSATLGITGLQTGDEADYYCGTWDSSLSAVIFGGGTKLTVL
notes: The limits of VH (1-114) and VL (1-108) are stated in CLM-00001; the entries also hold a portion of the constant region; also called Ha16-1(3, 5)18.1; ATCC PTA-7452
B9: H16-9.69 (antibody, V domains shown)
VH: WGLSEVSCKASGYTFTSYDIHWVRQATGQGLEWMGWMNPNSGNTVYAQKFQGRVTMTRNTSISTAYMELSSLRSEDTAVYYCARTVLLWPFDYWGQGTLVTVSS
VL: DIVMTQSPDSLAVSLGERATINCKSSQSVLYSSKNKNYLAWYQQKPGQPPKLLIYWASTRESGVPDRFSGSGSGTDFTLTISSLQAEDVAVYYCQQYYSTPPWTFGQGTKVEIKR
B10: H16-1.67 (antibody, V domains shown)
VH: VESGPGLVKPSQTLSLTCTVSGGSINSFGYYWSWIRQYPGKGLEWIGFLYFTGSTYYNPSLKSRVTISVDTSKSQFSLKLSSVTAADTAVYYCARAGTMVRGAHYYGMDVWGQGTTVTVSS
VL: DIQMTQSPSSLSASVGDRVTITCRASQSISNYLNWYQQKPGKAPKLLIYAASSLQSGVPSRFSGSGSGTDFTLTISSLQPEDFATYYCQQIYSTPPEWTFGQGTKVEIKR
B11: Ha16-1(3,5)56 (antibody, V domains shown)
VH: RCRLVESGAEVKKPGESLKISCKGSGYRFTSYWIGWVRQMPGKGLEWMGIIYPGDSDTRYSPSFQGQVTISADKSISTAYLQWRSLKASDTAMYYCARKDYYYYVMDVWGQGTTVTVSS
VL: DTISCTGTSSDVGNYNYVSWYQQHPGKAPKLMIYAVNNRPSGVSNRFSGSKSGNTASLTISGLQAEDEADYYCSSYTSSRNLVVFGGGTKLTVLG
B12: Ha16-1(3,5)19 (antibody, V domains shown)
VH: B11 VH with R1E, C2V, R3Q, E6Q, R84S, V105A
VL: QSALTQPASVSGSPGQSITISCTGTSSDVGRYNYVSWYQQHPGQAPKLMIYGISIRPSGVSPRFSGSKSGNTASLTISGLQAEDEADYYCSSHTSNSTLVVFAGGTKLTVLG
notes: Entries hold part of the leader and a portion of the constant region
B13: H16-1(3,5)5 (antibody, V domains shown)
VH: B11 VH with R1E, C2V, R3Q, E6Q, R84S, V105T
VL: QSALTQPASVSGSPGQSITISCTGTSSDVGGYNYVSWYQQHPGKAPKLMIYAVSNRPSGVSNRFSGSKSGNTASLTISGLQAEDEADYYCSSYTISRILVVFGGGTKLTVLG
notes: Entries hold the leader (or part of it) and a portion of the constant region; also called Ha16-1(3,5)5
B14: Ha16-1(3,5)42 (antibody, V domains shown)
VH: B11 VH with R1E, C2V, R3Q, E6Q, R84S, V105S
VL: B13 VL with G31R, Y32F, H41R, S54N, N55I, D87G, I95S, R97S, I98T, V100L
notes: Entries hold the leader (or part of it) and a portion of the constant region
B15: H16-7.8 (antibody, V domains shown)
VH: QVQLQESGPGLVKPSQTLSLTCTVSGGSISSGGYYWSWIRQHPGKGLEWIGIIYYSGSTYYNPSLKSRVTISVDTSKNQFSLKLNSVTAADTAVFYCARVAIVTTIPGGMDVWGQGTTVTVSS
VL: EIVLTQSPDFQSVTPKEKVTITCRASQSIGISLHWYQQKPDQSPKLLIKYASQSFSGVPSRFSGSGSGTDFTLTINSLEAEDAATYYCHQSRSFPWTFGQGTKVEIKR
notes: Entries hold the leader and a portion of the constant region
B16: H16-9.10 (antibody, V domains shown)
VH: LLESGPGLVKPSQTLSLTCAISGDSVSSNSAAWNWIRQSPSRGLEWLGRTYYRSKWYNAYAVSVKSRMTINPDTSKNQFSLQLNSVTPEDTAVYYCAREAGGWFDPWGQGTLVTVSS
VL: DIQMTQSPSSVSASVGDRVTITCRASQGIRSWLAWYQQKPGKAPKLLIYAASSLQSGVPSRFSGSGSGTDFTLTISSLQPEDFATYYCQQANSFPPTFGGGTKVEIKR
notes: also called Ha16-9.10
B17: H16-9.33 (antibody, V domains shown)
VH: EVQLLESGPGLVKPSQTLSLTCAISGDSVSSNSAAWNWIRQSPSRGLEWLGRTYYRSKYYNAYPVSVKSRITINPDTSKNQFSLQLNSVTPEDTAVYYCAREAGGWFDPWGQGTLVTVSS
VL: B16 VL with S26N
B18: H16-7.213 (antibody, V domains shown)
VH: WGLSEVSCKASGYTFTGYYMHWVRQAPGQGLEWMGWINPNSGGTNYAQKFQGRVTMTRDTSISTAYMELSRLRSDDTAVYYCARELRYFGWLLSSLDYWGQGTLVTVSS
VL: DIQMTQSPSSLSASVGDRVTITCRASQSISSYLNWFQQKPGKAPKLLIYAASSLQSGVPSRFSGSESGTDFTLTISSLQPEDFATYSCQQSYSFPLTFGGGTKVEIKR
B19: H16-1.93 (antibody, V domains shown)
VH: QVQLVQSGAEVKKPGASVKVSCKASGYTFTSYGISWVRQAPGQGLEWMGWISAYNGNTYYAQKLQARVTMTTDTSTSTAYMELRSLRSDDTAVYYCARDGYSSSWSLLHYYGMDVWGQGTTVTVSS
VL: DIQMTQSPSSLSASVGDRITITWRSSQGIYNSLAWYQQKPGKVPKLLIYAASTLHSGVPSRFSGSGSGTDFTLTISSLQPEDVATYYCQKYNSAPFTFGPGTKVDIKR
notes: Entries hold the leader (or part of it) and a portion of the constant region; also called ATCC PTA-7449
B20: H16-1.61.1 (antibody, V domains shown)
VH: B2 VH with H3Q, R30S, M91T, M93V
VL: DTQLTQSPSSLSASVGDRVTITCRASQSISSYLNWYQLKPGKAPKLLIYAASSLESGVPSRFSGSESGTDFTLTISSLQPEDFATYYCQQSYNSPITFGPGTKVDIKR
B21: H16-1.80 (antibody, V domains shown)
VH: QVQLQESGPGLVKPSETLSLTCTVSGGSISSYYWSWIRQPPGKGLEWIGYVYFSGSTNYNPSLKSRVTISVDTSKNQFSLKLSSVTAADTAVYYCARATRDYYYYGMDVWGQGTTVTVSS
VL: B5 VL with I26S, Q27H, N28D, N30S, S31N, R39K, T51A, G66R
notes: also called Ha16-1.80; HA16-1.80

Biological target: T1, purified recombinant 161P2F10B extracellular domain (Tag5-161P2F10B ECD, amino acids 46-875) (human, UniProt O14638 46-875)
T1 construct: also called full length ECD
Assay: SPR (BIAcore), MAb captured on chip, recombinant 161P2F10B injected, 1:1 fit;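 also: purified human MAbs immobilised by capture on a CM5 chip surface, about 150 RU of antibody per cycle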
Excerpt: Briefly, each purified human MAb is captured onto a CM5 sensor chip surface. On average approximately 150 RUs of each MAb is captured in every cycle.

Row | Kd [nM] | koff [s⁻¹] | kon [M⁻¹ s⁻¹] | Binder
1 | 24 | 0.00088 | 36000 | B1
2 | 2.3 | 0.000244 | 106000 | B2
3 | 4.8 | 0.000177 | 36900 | B3
4 | 8.7 | 0.00046 | 52900 | B4
5 | 21.7 | 0.00143 | 65800 | B5
6 | 5 | 0.000464 | 93700 | B6
7 | 0.76 | 0.000132 | 174000 | B7
8 | 28 | 0.00062 | 22000 | B8
9 | 4 | 0.000186 | 42400 | B9
10 | 43 | 0.0007 | 16000 | B10
11 | 14.5 | 0.000593 | 40800 | B11
12 | 1.68 | 8.4e-05 | 50000 | B12
13 | 7.2 | 4.76e-05 | 6600 | B13
14 | 4.3 | 0.000205 | 47600 | B14
15 | 18 | 0.00063 | 35000 | B15
16 | 7.4 | 0.000442 | 59500 | B16
17 | 3.9 | 0.000257 | 66300 | B17
18 | 3.9 | 0.000509 | 129000 | B18

Biological target: T2, 161P2F10B variant 1 (human 161P2F10B), on the cell surface (human, UniProt O14638 1-875)
T2 construct: Cell surface pyrophosphatase/phosphodiesterase; also called 161P2F10B v.1; CD203c
Assay: FACS titration on KU-812 cells, one site binding fit
Description: At the end of the incubation, cells were washed and incubated with anti-hIgG-PE detection antibody for 45 min at 4° C. After washing the unbound detection antibodies, the cells were analyzed by FACS. MFI values of each point were obtained using CellQuest Pro software and were used for the affinity calculation using Graphpad Prism software and the one site binding (hyperbola) equation.

Row | Kd [nM] | Binder
19 | 0.09 | B19
20 | 0.014 | B3
21 | 0.004 | B5
22 | 1.27 | B7
23 | 0.047 | B8
24 | 0.27 | B9
25 | 0.02 | B10
26 | 0.019 | B11
27 | 0.07 | B15
28 | 0.5 | B16

Biological target: T2, 161P2F10B variant 1 (human 161P2F10B), …
Assay: flow cytometry on cells or ELISA on immobilized 161P2F10B

Row | binding result | Binder
29 | binds | B20
30 | binds | B21
